Here are results for three substances from publication PMC1950596.

Assay [1] addresses Psu (polarity suppression protein), wild type, non-His-tagged (bacteriophage P4) (UniProt P05460). In words: cross-linking.
Assay [2] shares this target. In words: SEC.
In assay [3] the target is Psu M6 mutant (P169V) (bacteriophage P4) (UniProt P05460). In words: cross-linking.
For assay [4], the target named is Δ-CTD10 Psu, His-tagged (pRS459, pET28b) (bacteriophage P4) (UniProt P05460). In words: cross-linking.

As to “Psu (polarity suppression protein), wild type, non-His-tagged (from UniProt P05460 1-190) (natural protein)”, the figures for the stoichiometry N in assay [1] and in assay [2] were 2 and 3, respectively. On to “Psu M6 mutant (P169V) (from UniProt P05460 1-190) (natural protein)”, for which the stoichiometry N (usually the number of molecules, sites or subunits per partner or assembly) in assay [3] worked out at 2. Substance “Δ-CTD10 Psu, His-tagged (pRS459, pET28b) (from UniProt P05460 1-180) (domain or fragment)” had a stoichiometry N in assay [4] of 2.
